Test results: doi:10.1101/2025.02.13.638105
Like-named read-outs stand apart in the source and are kept apart here.

Legend:
[1] = molecular target: human recombinant wildtype neurofibromin isoform I (human) (UniProt P21359); assay: cryo-EM structure
[2] = molecular target: human recombinant wildtype neurofibromin isoform I (human) (UniProt P21359); assay: cryo-EM structure; remark: listed apart in the source

stoichiometry N [1]: 2
dimers per tetramer (counts of single particles) [2]: 4
stoichiometry N [2]: 4
Substance: human recombinant wildtype neurofibromin isoform I, P21359-2 1-2818
